Assays:
hCCR3 = biological target: T1, hCCR3 (human, UniProt P51677 1-355); assay: flow cytometry, IgG 100 nM, cells over-expressing hCCR3
T1 construct: whole, on cells
T1 sequence (looked up): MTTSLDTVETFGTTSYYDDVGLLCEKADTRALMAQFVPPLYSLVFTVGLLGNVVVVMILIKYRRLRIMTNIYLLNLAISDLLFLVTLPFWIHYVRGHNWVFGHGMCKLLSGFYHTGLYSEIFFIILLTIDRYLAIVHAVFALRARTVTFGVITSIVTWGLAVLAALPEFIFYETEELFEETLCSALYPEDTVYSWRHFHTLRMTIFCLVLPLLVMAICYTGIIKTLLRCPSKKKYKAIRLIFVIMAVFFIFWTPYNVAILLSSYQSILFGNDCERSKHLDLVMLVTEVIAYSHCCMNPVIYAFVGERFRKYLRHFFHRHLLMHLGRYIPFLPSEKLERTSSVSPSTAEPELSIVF
Description: (§1) Cells over-expressing different GPCRs other than CXCR4 and several lines transfected to over-express CXCR4 (R1610-hCXCR4, Cf2Th-hCXCR4 and CHO-hCXCR4) were compared. Cultures were incubated with a test IgG at 100 nM in FACS buffer for 40 min at 4° C. Thereafter, cells were washed twice, stained with anti-human-Fc antibody-PE conjugate (Jackson Immunoresearch Laboratories Inc., West Grove, Pa.), washed twice in FACS buffer and then transferred to FIX buffer. Fluorescence intensities were measured by GUAVA PCA-96 at 425V (in triplicate).
(§2) The expression of GPCRs other than CXCR4 was confirmed using commercially available antibodies (positive controls). For example, a commercial anti-CXCR1 antibody was used as a positive control for confirming the expression of CXCR1 on the CXCR1-transfected CHO cells.

hCCR5 = biological target: T2, hCCR5 (human, UniProt P51681 1-352); assay: flow cytometry, IgG 100 nM, cells over-expressing hCCR5
T2 construct: whole, on cells
Description: as §1, §2

human CXCR4 [1] = biological target: T3, human CXCR4 (human, UniProt P61073 1-352); assay: cell-based or functional assay
hCCR10 = biological target: T4, hCCR10 (human, UniProt P46092 1-362); assay: flow cytometry, IgG 100 nM, cells over-expressing hCCR10
T4 construct: whole, on cells
T4 sequence (looked up): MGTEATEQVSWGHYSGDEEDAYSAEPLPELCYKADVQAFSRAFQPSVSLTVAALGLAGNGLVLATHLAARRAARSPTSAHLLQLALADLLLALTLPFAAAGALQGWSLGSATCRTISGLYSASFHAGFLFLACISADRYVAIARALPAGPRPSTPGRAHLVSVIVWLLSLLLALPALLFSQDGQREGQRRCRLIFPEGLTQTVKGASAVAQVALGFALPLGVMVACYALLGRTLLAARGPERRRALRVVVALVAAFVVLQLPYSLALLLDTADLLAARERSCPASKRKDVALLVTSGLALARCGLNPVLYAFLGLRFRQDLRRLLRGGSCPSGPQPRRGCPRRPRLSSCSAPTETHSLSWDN
Description: as §1, §2

human CXCR4 [2] = biological target: T3, human CXCR4; assay: flow cytometry, IgG 10 µg/mL, CXCR4-expressing Ramos (RA1) cells
Description: Binding of test IgGs to CXCR4-expressing human lymphoma cells (Ramos; RA1, ATCC® CRL-1596™) was measured by fluorescent flow cytometry-based assay. Tumor cell staining was conducted as follows: human Fcγ receptors of RA1 cells were saturated by incubation at 4° C. for 30 minutes in PBS containing 2% human serum and 0.5 mM EDTA. Cells were then incubated at 4° C. for one hour with test IgGs or a human isotypic IgG1 kappa control (Coger Sarl, Paris, France) (both antibody types at 10 μg/mL). The cells were washed with PBS and further incubated for one hour at 4° C. with a goat F(ab′)2 fragment anti-human IgG (H+L)-PE (Beckman Coulter). The cells were washed twice with PBS and fixed with 0.5% formaldehyde in PBS for analysis by flow cytometry. The data were acquired using an eleven-color flow cytometer (LSRII, BD Biosciences), and the analyses were performed with the FlowJo flow cytometry analysis software (Tree Star Inc., Ashland, Oreg.). The living cells were selected using the side scatter (SSC) and the forward scatter (FSC); 10,000 events were acquired for each analysis. MFI values were recorded using the PE channel.

hCCR7 = biological target: T5, hCCR7 (human, UniProt P32248 25-378); assay: flow cytometry, IgG 100 nM, cells over-expressing hCCR7
T5 construct: whole, on cells
T5 sequence (looked up): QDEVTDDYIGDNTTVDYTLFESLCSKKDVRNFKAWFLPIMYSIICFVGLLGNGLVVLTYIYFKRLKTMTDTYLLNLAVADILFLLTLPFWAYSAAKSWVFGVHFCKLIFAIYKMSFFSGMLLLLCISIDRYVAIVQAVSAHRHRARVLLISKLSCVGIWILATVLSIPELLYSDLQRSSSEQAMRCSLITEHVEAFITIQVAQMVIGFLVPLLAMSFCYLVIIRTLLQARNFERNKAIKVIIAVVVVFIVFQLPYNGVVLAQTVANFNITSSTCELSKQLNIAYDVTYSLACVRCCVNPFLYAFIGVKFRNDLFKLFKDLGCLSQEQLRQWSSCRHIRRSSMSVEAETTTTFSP
Description: as §1, §2

hCCR6 = biological target: T6, hCCR6 (human, UniProt P51684 1-374); assay: flow cytometry, IgG 100 nM, cells over-expressing hCCR6
T6 construct: whole, on cells
T6 sequence (looked up): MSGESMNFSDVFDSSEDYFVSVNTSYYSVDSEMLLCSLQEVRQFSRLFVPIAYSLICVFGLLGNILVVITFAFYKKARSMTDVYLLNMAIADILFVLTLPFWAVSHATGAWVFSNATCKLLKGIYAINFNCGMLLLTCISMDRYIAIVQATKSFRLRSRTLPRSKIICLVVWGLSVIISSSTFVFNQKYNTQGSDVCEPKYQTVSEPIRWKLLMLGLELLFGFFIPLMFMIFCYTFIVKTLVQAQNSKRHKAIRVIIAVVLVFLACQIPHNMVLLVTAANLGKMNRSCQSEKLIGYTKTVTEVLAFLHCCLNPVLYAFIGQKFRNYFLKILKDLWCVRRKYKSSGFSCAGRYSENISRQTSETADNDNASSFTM
Description: as §1, §2

T2 sequence (P51681 whole entry): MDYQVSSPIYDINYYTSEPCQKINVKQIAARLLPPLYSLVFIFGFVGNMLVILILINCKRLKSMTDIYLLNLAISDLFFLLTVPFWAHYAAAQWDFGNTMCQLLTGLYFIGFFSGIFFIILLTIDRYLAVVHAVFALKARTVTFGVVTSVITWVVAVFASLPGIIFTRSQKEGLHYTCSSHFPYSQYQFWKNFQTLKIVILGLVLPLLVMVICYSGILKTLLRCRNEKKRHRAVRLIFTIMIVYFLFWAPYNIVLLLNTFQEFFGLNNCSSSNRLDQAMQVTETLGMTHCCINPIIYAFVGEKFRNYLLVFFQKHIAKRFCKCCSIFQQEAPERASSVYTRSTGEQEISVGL
T3 sequence (P61073 whole entry): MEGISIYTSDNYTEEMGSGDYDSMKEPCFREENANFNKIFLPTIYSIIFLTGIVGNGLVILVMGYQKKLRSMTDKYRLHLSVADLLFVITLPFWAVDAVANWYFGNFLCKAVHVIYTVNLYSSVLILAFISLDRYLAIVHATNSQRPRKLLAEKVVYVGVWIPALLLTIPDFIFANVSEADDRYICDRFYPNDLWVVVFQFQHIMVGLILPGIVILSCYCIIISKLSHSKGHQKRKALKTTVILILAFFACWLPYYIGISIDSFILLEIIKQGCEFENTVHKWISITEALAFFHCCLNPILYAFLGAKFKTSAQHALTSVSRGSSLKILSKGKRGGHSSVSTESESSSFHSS

Row | Binder | MFI (hCCR3) | MFI (hCCR5) | IC50 (nM), inhibition of SDF-1alpha-induced calcium flux (human CXCR4 [1]) | MFI (hCCR10) | MFI (human CXCR4 [2]) | MFI (hCCR7) | MFI (hCCR6)
1 | V62.1-R108H (antibody, human IgG1, V domains shown, Tested as an IgG (human IgG1 format); also called IgG1 V62.1 R108H) VH: not shown VL: EIVLTQSPGTLSLSPGERATLSCRASQSVSSSYLAWYQQKPGQAPRLLIYGASSRATGIPDRFSGSGSGTDFTLTISRLEPEDFAVYYCQQSDYSYPFTFGQGTKVEIKR | 4 | 3 | 6.8 nM | 3 | 429 | 4 | 3
2 | V62.1 (antibody, human IgG1, V domains shown, Tested as an IgG (human IgG1 format; DP47 heavy and DPK22 kappa light frameworks) made in CHO-3E7 cells; also called IgG V62.1) VH: not shown VL: EIVLTQSPGTLSLSPGERATLSCRASQSVSSSYLAWYQQKPGQAPRLLIYGASSRATGIPDRFSGSGSGTDFTLTISRLEPEDFAVYYCQQSDYSYPFTFGQGTKVEIKR | 4 | 4 | 7.4 nM | 4 | 595 | 3 | 3
3 | V62.1-R108H-m80 (antibody, human IgG1, V domains shown, Tested as an IgG (human IgG1 format); also called V62.1-H-m80; V62.1-R108H-m80-Wt) VH: EVQLLESGGGLVQPGGSLRLSCAASGFTISPYSITWVRQAPGKGLEWVSQINSYNGKTYYADSVKGRFTISRDNSKNTLYLQMNSLRAEDTAVYYCARQGKTRVYGYHWHGYGSTHALDYWGQGTLVTVSS VL: EIVLTQSPGTLSLSPGERATLSCRASQSVSSSYLAWYQQKPGQAPRLLIYGASSRATGIPDRFSGSGSGTDFTLTISRLEPEDFAVYYCQQSDYSYPFTFGQGTKVEIKR | 2 | 8 | 7.5 nM | 10 | 440 |  | 10
4 | V62.1-R108H-m47-m38 (antibody, human IgG1, V domains shown, Tested as an IgG (human IgG1 format); also called V62.1-H-m47-m38; IgG1 62.1-R108H-m47-m38) VH: EVQLLESGGGLVQPGGSLRLSCAASGFTFSSYAMSWVRQAPGKGLEWVSAISGSGGTRYADSVKGRFTISRDNSKNTLYLQMNSLRAEDTAVYYCARQGKTRVYGYHWHGYGSTHALDYWGQGTLVTVSS VL: EIVLTQSPGTLSLSPGERATLSCRASQSVSSSYLAWYQQKPGQAPRLLIYGASSRATGIPDRFSGSGSGTDFTLTISRLEPEDFAVYYCQQWSSDSVTFGQGTKVEIKR |  | 2 | 5 nM | 2 | 549 | 2 | 2

— US20190389958A1 (MSM PROTEIN TECHNOLOGIES, published 2019)
